Results published in patent publication US20210317499A1.

Target: His-tagged FcγRIIIa recombinant protein (UniProt P08637)
Assay: SPR (Biacore X100); His-tagged FcγRIIIa captured on anti-His antibody CM5 chip, antibody as analyte; 1:1 Langmuir fit

Sequence of UniProt P08637 (P08637 17-208 limits assumed): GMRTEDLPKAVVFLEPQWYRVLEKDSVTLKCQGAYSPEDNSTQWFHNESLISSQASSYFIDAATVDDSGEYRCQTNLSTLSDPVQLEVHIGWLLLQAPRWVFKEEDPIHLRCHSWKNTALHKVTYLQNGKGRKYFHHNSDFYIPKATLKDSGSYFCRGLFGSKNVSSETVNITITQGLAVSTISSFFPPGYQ

A Kd of 39.9 nM, a koff of 0.0069 s⁻¹ and a kon of 173000 M⁻¹ s⁻¹ were found for “GAZYVA (obinutuzumab), commercial afucosylated anti-CD20 antibody” in this work.
